According to IntAct's records for PubMed 21224850:

B1: Cell division protein SepF (Bacillus subtilis), O31728 (parent)
chain: MSMKNKLKNFFSMEDEEYEYEYIETERESHEEHEQKEKPAYNGNKPAGKQNVVSLQSVQKSSKVVLSEPRVYAEAQEIADHLKNRRAVVVNLQRIQHDQAKRIVDFLSGTVYAIGGDIQRIGSDIFLCTPDNVDVSGTISELISEDEHQRW
partner: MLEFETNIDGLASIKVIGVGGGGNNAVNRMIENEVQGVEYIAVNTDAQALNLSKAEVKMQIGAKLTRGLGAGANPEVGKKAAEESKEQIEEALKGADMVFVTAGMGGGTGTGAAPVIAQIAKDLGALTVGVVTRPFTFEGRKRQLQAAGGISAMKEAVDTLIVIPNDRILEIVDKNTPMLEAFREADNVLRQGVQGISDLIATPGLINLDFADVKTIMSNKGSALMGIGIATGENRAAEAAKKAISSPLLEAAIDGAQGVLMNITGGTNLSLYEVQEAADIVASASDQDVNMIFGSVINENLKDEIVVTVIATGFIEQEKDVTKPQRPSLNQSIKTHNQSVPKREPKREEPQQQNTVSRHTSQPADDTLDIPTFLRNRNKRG

Variants of: B1
Conditions: with ftsz_bacsu ftsZ

Variant	effect of a mutation on the interaction
MSMKNKLKNFFSMEDEEYEYEYIETERESHEEHEQKEKPAYNGNKPAGKQNVVSLQSVQKSSKVVLSEPRVYAEAQEIADHLKNRRAVVVNLQRIQHDQAKRIVDFLSGTVYAIGGDIQRIGSDISLCTPDNVDVSGTISELISEDEHQRW [F126S]	disrupting interaction

Variants of: B1
Conditions: with ftsz_bacsu ftsZ
Remark: another data set of the same source

Variant	effect of a mutation on the interaction
MSMKNKLKNFFSMEDEEYEYEYIETERESHEEHEQKEKPAYNGNKPAGKQNVVSLQSVQKSSKVVLSEPRVYAEAQEIADHLKNRRAVVVNLQRIQHDQVKRIVDFLSGTVYAIGGDIQRIGSDIFLCTPDNVDVSGTISELISEDEHQRW [A100V]	disrupting interaction
